Experimental data published in the RNAGym collection of RNA variant scans (doi:10.1021/acssynbio.7b00057).

B1: Pistol ribozyme (parent)
chain: GGGUCGUUGUUCCAUAAUCGCGUGGAUAUGGCACGCAAGUUUCUACCGGGCACCGUAAAUGUCCGACUGGAGCCGUUCGGGCGGCUAUAAACAGACCUCAGGCCCGAAGCGUGGCGGCACCUGCCGCCGGUGGUAAAAAAGAUCGGAAGAGCACACGUCU

Variants of: B1
Experiment: aptazyme ON/OFF ratio, guanine; higher = stronger switching; co-transcriptional cleavage with and without guanine

In order of falling “aptazyme ON/OFF ratio” value:
1. U8C G9A U11G C12G  1.3
2. U8C G9A U11G C12U  1.29
3. U8C G9A U11G C12A C13G  1.29
4. U8C G9A U11G C12A C13U  1.27
5. U8C G9C U10A U11C C12G C13U  1.27
6. U8C G9A U11C C12G C13G  1.26
7. U8C G9C U10A C12G  1.25
8. U8C G9A U11C C12G C13A  1.24
9. U8C G9C U10A U11C C13A  1.23
10. U8C G9C U10A U11C C12G C13A  1.23
11. U8C G9A U11G C12A C13A  1.22
12. U8C G9C U10A U11G C12U C13U  1.22
13. U8C G9A U10G U11G C12A C13U  1.2
14. U8C G9C U10A C12G C13U  1.2
15. U8C G9C U10A C12G C13A  1.2
16. U8C G9C U10A U11C C13G  1.2
17. U8C G9C U10G C13G  1.19
18. U8C G9C U10G U11C C12U C13U  1.19
19. U8C G9C U10A U11G C12U C13A  1.19
20. U8C G9A U11G C12G C13G  1.19
21. U8C G9A U11G C12G C13A  1.19
22. U8C G9A U11C C12G C13U  1.18
23. U8C G9C U10G U11C C12U C13A  1.17
24. U8C G9C U10A U11A C13G  1.17
25. U8C G9C U10G U11A C12A C13A  1.16
26. U8C G9C U10A U11C C12G C13G  1.16
27. U8C G9A U10G U11G C12A C13A  1.15
28. U8C G9C U10A C12G C13G  1.15
29. U8C G9C U10A U11A C13A  1.15
30. U8C G9C U10G U11G C12A  1.15
31. U8C G9C U10A U11G C12U C13G  1.15
32. U8C G9A U10G U11G C13A  1.15
33. U8C G9A U10G U11G C12A C13G  1.14
34. U8C G9C U10A U11C C13U  1.14
35. U8C G9C U10G U11A C12G C13G  1.13
36. U8C G9C U10G U11G C12G  1.13
37. U8C G9A U10G U11G C13G  1.13
38. U8C G9C U10G C12A C13A  1.13
39. U8C G9C U10A C12U  1.13
40. U8C G9C U10G U11G C12A C13G  1.11
41. U8C G9C U10G U11G C13A  1.11
42. U8C G9C U10G U11G C13G  1.11
43. U8C G9C U10G C13U  1.11
44. U8C G9C U10G U11A C12G C13U  1.11
45. U8C G9C U10A U11A C12A C13G  1.11
46. U8C G9A U10G U11C C13A  1.11
47. U8C G9A U11G C12G C13U  1.11
48. U8C G9C U10A C12A  1.11
49. U8C G9C U10G C13A  1.1
50. U8C G9C U10C U11A C12G C13U  1.1
51. U8C G9C U10G U11A C12A C13G  1.1
52. U8C G9C U10G U11A C12A C13U  1.1
53. U8C G9C U10G U11C C12U C13G  1.09
54. U8C G9C U10A U11A C13U  1.09
55. U8C G9C U10G U11G C12U  1.09
56. U8C G9A U10G U11G C13U  1.09
57. U8C G9C U10G C12A C13U  1.09
58. U8C G9C U10G U11A C12U C13G  1.08
59. U8C G9C U10G U11G C12A C13A  1.08
60. U8C G9C U10G U11G C12A C13U  1.08
61. U8C G9C U10G U11A C12G C13A  1.08
62. U8C G9C U10A U11A C12A C13U  1.08
63. U8C G9C U10C U11A C12G C13G  1.08
64. U8C G9C C13U  1.08
65. U8C G9C U10G C12A C13G  1.08
66. U8C G9C U10C U11A C13G  1.08
67. U8C G9C U10G U11G C13U  1.07
68. U8C G9C U10A U11A C12A C13A  1.07
69. U8C G9A U10G U11C C13G  1.07
70. U8C G9C U10G U11A C12U C13A  1.06
71. U8C G9A U10G U11C C13U  1.06
72. U8C G9A U11G C12A  1.06
73. U8C G9C U10C U11A C12G C13A  1.06
74. U8C G9C C13G  1.06
75. U8C G9A U11C C13A  1.06
76. U8C G9C C13A  1.05
77. U8C G9C U10G U11A C12U C13U  1.04
78. U8C G9A U11C C13U  1.04
79. U8C G9A U11C C13G  1.04
80. U8C G9C U10C U11A C13U  1.04
81. U8C G9C U10C U11A C12U C13G  1.02
82. U8C G9C U10C U11A C12U C13A  1.02
83. U8C G9C U10C U11A C12U C13U  1.01
84. U8C G9C U10C U11A C13A  1.01
